In the supplement of paper PMC9170038:

Test system: MS2 coat protein
Assay: apparent KD of MS2 coat protein; designed switch direction (-1 OFF switch, 1 ON switch): -1; higher = weaker reporter binding
Summary of the method: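 Three titration conditions were used: no input, 200 uM small-molecule ligand, and an oligonucleotide input. In each, SNAP-549-labelled MS2 coat protein was raised from 0.7 or 1.5 nM, doubling, to 3 µM over designed RNA switches transcribed on Illumina chips by stalled E. coli RNA polymerase. Curve fits of normalised cluster fluorescence gave values whose per-design median over clusters is the apparent KD.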

[1] = input ligand: microRNA oligo, concentration not stated
[2] = Eterna round: R95, input ligand: microRNA oligo, concentration not stated

Sequence	apparent KD of MS2 coat protein (input ligand: FMN 200 uM)	apparent KD of MS2 coat protein [1]	apparent KD of MS2 coat protein (input ligand: none)	apparent KD of MS2 coat protein [2]	apparent KD of MS2 coat protein (Eterna round: R95, input ligand: FMN 200 uM)	apparent KD of MS2 coat protein (Eterna round: R95, input ligand: none)
UCAGACAUGAGGAUCACCCAUGUGUGACCCUCCUGUCUCAGUCAGGAUAUACUUUUUCAAACUUAGUAGAAGGGACAACAAAAC [Oronerused] (Eterna round: R96, puzzle: Exclusion NG 3)	37.8 nM	27.8 nM	61.4 nM			
GUAAACGAUGAGGAUAUAUGAUAUCAAAGCAUCAUAGAAGGCAUCACAUGAGGAUCACCCAUGUGAUCUUCUUG [Mat - Exclusion 6 - JL Mod - D30] (Eterna round: R97, puzzle: Exclusion 6)	135 nM		31.3 nM			
GCGUACAGCCUAAGCAGUGACAUGAGGAUCACCCAUGUACGAACGUUUACCAAGCUUGUCUUAAUACCAUUAUAAAU [Eternabot (L1) Solution 20] (Eterna round: R97, puzzle: Sensor, turn-off variant 1)	23.7 nM		28.9 nM			
UUUCAUCAUGUAGGAUAUGUGUGGCGAAGCUAUACAGAAGGACAUGAGGAUCACCCAUGUUCUUGCGUCUGCGUACAGAUGCAA [14th something] (Eterna round: R96, puzzle: Exclusion NG 1)	348 nM	33.1 nM	43.3 nM			
GACCAGGUAGGAUAUGCAGGGUAGGACUUGAGGAUCACCCAAGUGGCCAAAGUGCGUCCCGCAGAAGGGCCGAACC [Teararatbi] (Eterna round: R97, puzzle: Exclusion 5)	356 nM		386 nM			
GAUUAGGUAGGAUAUACGUAGUGAGCCAGCGAGAGCUGGUAACAUGAGGAUCACCCAUGUAGAAGGACCAUUAA [Xeorqulaus] (Eterna round: R97, puzzle: Exclusion 2)	145 nM		72.4 nM			
UGGCUUUGAGGAUAUACAUUGAAUAAGAUUCAUGUAAAACUACAUGAGGAUCACCCAUGUAGAAGGCAAGGCCU [Mat - Exclusion 2 - JL Mod - D74] (Eterna round: R97, puzzle: Exclusion 2)	26.9 nM		16 nM			
CGCUAUGCCGAGGAUAUUCUUGGUAUGCAUCUAGGAGAAGGCGGCACAUGAGGAUCACCCAUGUCAAAACAUAU [Eternabot (L1) Solution 97] (Eterna round: R97, puzzle: Exclusion 6)	29 nM		28.4 nM			
UUUUAACAUGAGGAUCACCCAUGUGAGGAUAUCGAAAUUUAUAUUAAUAUUAAUUUAACGAGAAGGCACAUUUU [JMF 31] (puzzle: Exclusion 1)				88.5 nM		
UUUCCCUGUGUGAGGAUAUACUUGUUUGGGUUUUUGUAGAAGGCACAUGAGGAUCACCCAUGUAUUUUGUCGUG [JR_BME4_Sub020] (puzzle: Brourd's mod of Exclusion 4)				40.9 nM		
AAGAUGCGGGUAGGAUAUGGAGAGAAAGAAAGACCAGAAGGACUGGUCACACAACAUGAGGAUCACCCAUGUGUGUGUUGCGAA [EX ng 1 6] (Eterna round: R96, puzzle: Exclusion NG 1)		8.52 nM				
UGCCGAAGAGGAUAUACAUUGAAUUUGAUUCAUGUAAAACUACAUGAGGAUCACCCAUGUAGAAGGCUUUGGCU [Mat - Exclusion 2 - JL Mod - D61] (Eterna round: R97, puzzle: Exclusion 2)	34.2 nM		15.3 nM			
ACAGUUCUGCAAGGAUAUCGUCCUAGUUUGUUUCGAGAAGGUGCUUUUGUUUUUUCUUUGUGUUGACAUGAGGAUCACCCAUGU [JR_ExcNG1_Sub052] (Eterna round: R96, puzzle: Exclusion NG 1)	20.3 nM	20.6 nM	28.7 nM			
CAUGAUUGGCGAGGAUAUUGUUCUACAUGGCGACGAGAAGGCGCCUGUCACAUGAGGAUCACCCAUGUGAGUCUGGUGAAUGAG [Ex NG1 #84] (Eterna round: R96, puzzle: Exclusion NG 1)	27 nM	16.6 nM	22.2 nM			
AGAGAAUACUCAGGAUAUCUGAAUAGAAAGAGAAGAGAAGGGAGACAUGAGGAUCACCCAUGUGAAGUCUUGAGGCUGCAUGGA [Prohibition 25 - Jieux - Exclusion NG 1] (Eterna round: R96, puzzle: Exclusion NG 1)	83.5 nM	145 nM	106 nM			
ACAAGCUUAAAAAUCCUAAACAUGAGGAUCACCCAUGUUCGUCUUAUAAAAAUAAAAAUAAAAAACAAAAAAUAAAA [Sensor V2: 71] (Eterna round: R96, puzzle: Sensor v2, turn-off variant)	39 nM	228 nM	39.3 nM			
GUGAUCUAUCAUGGGAUAAACAUGAGGAUCACCCAUGUAGACAAGUUUUUUGCUCGUCUUAUAAUAAGAUAGAUCAC [Antenna 1 - Jieux - Sensor, turn-off variant 1] (Eterna round: R97, puzzle: Sensor, turn-off variant 1)	37.2 nM		39.4 nM			

Sequence	apparent KD of MS2 coat protein (input ligand: FMN 200 uM)	apparent KD of MS2 coat protein [1]	apparent KD of MS2 coat protein (input ligand: none)	apparent KD of MS2 coat protein [2]	apparent KD of MS2 coat protein (Eterna round: R95, input ligand: FMN 200 uM)	apparent KD of MS2 coat protein (Eterna round: R95, input ligand: none)
UUAGAAUUGUUAGGAUAUUAAUUAUUUUUUAGUAUGAUCUACAUGAGGAUCACCCAUGUUAAAUAUAAGAAGGAACGUUAUAUU [JR_ExcNG2_Sub096] (Eterna round: R96, puzzle: Exclusion NG 2)		49.9 nM				
ACAUGUAAUGUAGGAUAUUUUACACAUGAGGAUCACCCAUGUGACCGGAGGCUUUACUAUGAGUAAAAGAAGGGUAUGUACAUG [Ex NG2 #61] (Eterna round: R96, puzzle: Exclusion NG 2)	68.5 nM	33.1 nM	45.8 nM			
CGGGCCCGGGCAGGAUAUGCGGCGGCCCGGGCCGGUGGGCCCGGGCCGACAUGAGGAUCACCCAUGUAGAAGGGCCCGGGCCCG [low energy, MS2 in another position, A 14%] (Eterna round: R96, puzzle: Exclusion NG 2)	15.7 nM	10.7 nM	16.1 nM			
UUGUUAUAUGUAGGAUAUGCAUAUUAUUAUUGUGCAGAAGGACAUGAGGAUCACCCAUGUAUAUUAUUAUUAUAUAUUAUAUAU [Title] (Eterna round: R96, puzzle: Exclusion NG 1)		26.1 nM				
AAAGCGUGAGGAUAUGAGGCGCCGGGCCGGUUGGUGCGGAUUCAGAAGGCACAUGAGGAUCACCCAUGUCGGUA [Excls4-IV] (puzzle: Exclusion 4)				37.2 nM		
GGCUAGUCAGGAUAUACGAACAUGUCAAAAGACGUGAAGGGACAUGAGGAUCACCCAUGUAGAAGGGACUAGCG [salish99_ex2_r3_002] (puzzle: Exclusion 2)				25 nM		
CGAUGUUAUGUCAGGAUAUGCGUUGCGAAAGCAAUGUAGAAGGGACAUGAGGAUCACCCAUGUGCUAACCAUCG [Omei A 10] (puzzle: Brourd's mod of Exclusion 4)				17.2 nM		
GGAUCUACUGAGGAUAUUACAUCACCCGACUGAUAAGAAGGCAGAACAUGAGGAUCACCCAUGUGGGUAGCCAA [Polaris4] (Eterna round: R97, puzzle: Exclusion 6)	25.7 nM		21.3 nM			
UAUUAGCAAGCGAGAUCCCACAUGAGGAUCACCCAUGUGCUCGUCUUAUAUAAGGUACUGUACGAAAGUACGGUACC [Sensor 3, v1 - 91 v6] (Eterna round: R97, puzzle: Sensor, turn-off variant 1)	16.6 nM		16.2 nM			
GCCCGGGCAGGAUAUACAAUGAUCGUGAGAAAUCGUGAUCGACAUGAGGAUCACCCAUGUAGAAGGGCCCGGGC [-34.5, -32.3 kcal, A 28% 2] (Eterna round: R97, puzzle: Exclusion 2)	116 nM		50.5 nM			
GGAAUGAGAGAGGAUAUGGGAGGGAGGACCGGACCAGAAGGCUCGACAUGAGGAUCACCCAUGUGGAGAUCCUC [AK-MS2ROC-r4-exclusion6-6.11] (Eterna round: R97, puzzle: Exclusion 6)	236 nM		1480 nM			
UUUUUAUAUGAAGGAUAUACUUAACAUGAGGAUCACCCAUGUGGUGUUGUGAGUGAGUGAGUUUAGUAGAAGGUCAAGUAUUCU [JMF's solution 40] (Eterna round: R96, puzzle: Exclusion NG 2)	575 nM	306 nM	496 nM			
UAUUAGCAAGUGAGGUCCCACAUGAGGAUCACCCAUGUGCUCGUCUUAUAAGGUACUGUGACGAGAGUCACGGUACC [Mat - Sensor, turn-off var - Eli Mod - D52] (Eterna round: R97, puzzle: Sensor, turn-off variant 1)	40.2 nM		44.5 nM			
GCAAGUUUUUUGUUUUUUAACAUGAGGAUCACCCAUGUAUUUUUAUAGUAUGUGUGAAUAAGAUCUCGUGGUCUUAG [JR_SV3TOV1_Sub100] (puzzle: Sensor v3, turn-off variant 1)				203 nM	73.3 nM	77.2 nM
CUUGUUUAUGUAGGAUAUGCCUGGCGUGCCUUUGCAGAAGGACAUGAGGAUCACCCAUGUGGUAUGAGGCUUACCCUUGUCGCC [salish99_ExNG1_r04_121] (Eterna round: R96, puzzle: Exclusion NG 1)	30.6 nM	21.1 nM	28.9 nM			
AUUAUAAAUGUAGGAUAUCUGCACGUGUAGUGCAGAGAAGGACAUGAGGAUCACCCAUGUAGAUCAAUAAUAAUUAAUUUAAUU [ENG1/5-B3] (Eterna round: R96, puzzle: Exclusion NG 1)	223 nM	33.4 nM	49.2 nM			
